T1: EsCas13d, nuclease-dead (Eubacterium siraeum, UniProt B0MS50, R295A;H300A;R849A;H854A)
T1 sequence: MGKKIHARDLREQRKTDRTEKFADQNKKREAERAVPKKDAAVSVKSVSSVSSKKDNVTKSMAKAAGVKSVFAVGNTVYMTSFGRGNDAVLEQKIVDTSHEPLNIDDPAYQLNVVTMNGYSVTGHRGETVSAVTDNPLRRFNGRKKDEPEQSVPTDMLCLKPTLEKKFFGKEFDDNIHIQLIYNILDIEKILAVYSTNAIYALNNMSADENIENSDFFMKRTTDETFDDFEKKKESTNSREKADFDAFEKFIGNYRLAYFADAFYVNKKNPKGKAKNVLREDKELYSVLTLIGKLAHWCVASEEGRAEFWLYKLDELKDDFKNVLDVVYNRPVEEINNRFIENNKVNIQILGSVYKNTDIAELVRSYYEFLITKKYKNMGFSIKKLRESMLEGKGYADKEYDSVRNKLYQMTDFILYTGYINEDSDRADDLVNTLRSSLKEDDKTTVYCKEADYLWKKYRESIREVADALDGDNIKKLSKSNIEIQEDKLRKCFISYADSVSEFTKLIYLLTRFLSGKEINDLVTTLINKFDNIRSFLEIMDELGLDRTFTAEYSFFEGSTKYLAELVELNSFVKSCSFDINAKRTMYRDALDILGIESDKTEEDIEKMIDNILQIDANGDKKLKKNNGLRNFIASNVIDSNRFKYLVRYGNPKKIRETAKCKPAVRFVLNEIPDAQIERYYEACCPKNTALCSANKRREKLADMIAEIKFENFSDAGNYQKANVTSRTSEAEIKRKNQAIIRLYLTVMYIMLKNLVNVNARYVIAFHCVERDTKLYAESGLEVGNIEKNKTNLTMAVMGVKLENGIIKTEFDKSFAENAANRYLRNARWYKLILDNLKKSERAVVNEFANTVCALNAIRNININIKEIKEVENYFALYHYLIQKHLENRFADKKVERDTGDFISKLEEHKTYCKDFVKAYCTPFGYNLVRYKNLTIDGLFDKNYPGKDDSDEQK

B1: target 2 MT 5'PFS ACA 3'PFS UGA (mixed)
RNA 1: CACCCGUGCAAAAUUGCAGGGGUCUAAAACCUUCUCCAAAUUGUUUCAUCCU
RNA 2: GGGAAUGGAUCCACAUCUACGAAUUCACAAGGAUGAAACAAUUUGGAGAAGUGAAGAUCGGAAGAGCACACGU
B2: target 2 MT 5'PFS AGU 3'PFS CGC (mixed)
RNA 1: CACCCGUGCAAAAUUGCAGGGGUCUAAAACCUUCUCCAAAUUGUUUCAUCCU
RNA 2: GGGAAUGGAUCCACAUCUACGAAUUCAGUAGGAUGAAACAAUUUGGAGAAGCGCAGAUCGGAAGAGCACACGU
B3: target 2 MT 5'PFS GUU 3'PFS AAG (mixed)
RNA 1: CACCCGUGCAAAAUUGCAGGGGUCUAAAACCUUCUCCAAAUUGUUUCAUCCU
RNA 2: GGGAAUGGAUCCACAUCUACGAAUUCGUUAGGAUGAAACAAUUUGGAGAAGAAGAGAUCGGAAGAGCACACGU
B4: target 2 MT 5'PFS AGA 3'PFS CGA (mixed)
RNA 1: CACCCGUGCAAAAUUGCAGGGGUCUAAAACCUUCUCCAAAUUGUUUCAUCCU
RNA 2: GGGAAUGGAUCCACAUCUACGAAUUCAGAAGGAUGAAACAAUUUGGAGAAGCGAAGAUCGGAAGAGCACACGU
B5: target 2 MT 5'PFS CAA 3'PFS AUA (mixed)
RNA 1: CACCCGUGCAAAAUUGCAGGGGUCUAAAACCUUCUCCAAAUUGUUUCAUCCU
RNA 2: GGGAAUGGAUCCACAUCUACGAAUUCCAAAGGAUGAAACAAUUUGGAGAAGAUAAGAUCGGAAGAGCACACGU
B6: target 2 MT 5'PFS CGG 3'PFS UCA (mixed)
RNA 1: CACCCGUGCAAAAUUGCAGGGGUCUAAAACCUUCUCCAAAUUGUUUCAUCCU
RNA 2: GGGAAUGGAUCCACAUCUACGAAUUCCGGAGGAUGAAACAAUUUGGAGAAGUCAAGAUCGGAAGAGCACACGU
B7: target 2 MT 5'PFS GUA 3'PFS CAU (mixed)
RNA 1: CACCCGUGCAAAAUUGCAGGGGUCUAAAACCUUCUCCAAAUUGUUUCAUCCU
RNA 2: GGGAAUGGAUCCACAUCUACGAAUUCGUAAGGAUGAAACAAUUUGGAGAAGCAUAGAUCGGAAGAGCACACGU
B8: target 2 MT 5'PFS AGA 3'PFS CGG (mixed)
RNA 1: CACCCGUGCAAAAUUGCAGGGGUCUAAAACCUUCUCCAAAUUGUUUCAUCCU
RNA 2: GGGAAUGGAUCCACAUCUACGAAUUCAGAAGGAUGAAACAAUUUGGAGAAGCGGAGAUCGGAAGAGCACACGU
B9: target 2 MT 5'PFS AGC 3'PFS AAU (mixed)
RNA 1: CACCCGUGCAAAAUUGCAGGGGUCUAAAACCUUCUCCAAAUUGUUUCAUCCU
RNA 2: GGGAAUGGAUCCACAUCUACGAAUUCAGCAGGAUGAAACAAUUUGGAGAAGAAUAGAUCGGAAGAGCACACGU
B10: target 2 MT 5'PFS UCU 3'PFS UGA (mixed)
RNA 1: CACCCGUGCAAAAUUGCAGGGGUCUAAAACCUUCUCCAAAUUGUUUCAUCCU
RNA 2: GGGAAUGGAUCCACAUCUACGAAUUCUCUAGGAUGAAACAAUUUGGAGAAGUGAAGAUCGGAAGAGCACACGU
B11: target 2 MT 5'PFS GUU 3'PFS AAU (mixed)
RNA 1: CACCCGUGCAAAAUUGCAGGGGUCUAAAACCUUCUCCAAAUUGUUUCAUCCU
RNA 2: GGGAAUGGAUCCACAUCUACGAAUUCGUUAGGAUGAAACAAUUUGGAGAAGAAUAGAUCGGAAGAGCACACGU
B12: target 2 MT 5'PFS CUC 3'PFS UCU (mixed)
RNA 1: CACCCGUGCAAAAUUGCAGGGGUCUAAAACCUUCUCCAAAUUGUUUCAUCCU
RNA 2: GGGAAUGGAUCCACAUCUACGAAUUCCUCAGGAUGAAACAAUUUGGAGAAGUCUAGAUCGGAAGAGCACACGU
B13: target 2 MT 5'PFS AGC 3'PFS UGU (mixed)
RNA 1: CACCCGUGCAAAAUUGCAGGGGUCUAAAACCUUCUCCAAAUUGUUUCAUCCU
RNA 2: GGGAAUGGAUCCACAUCUACGAAUUCAGCAGGAUGAAACAAUUUGGAGAAGUGUAGAUCGGAAGAGCACACGU
B14: target 2 MT 5'PFS AAU 3'PFS AGA (mixed)
RNA 1: CACCCGUGCAAAAUUGCAGGGGUCUAAAACCUUCUCCAAAUUGUUUCAUCCU
RNA 2: GGGAAUGGAUCCACAUCUACGAAUUCAAUAGGAUGAAACAAUUUGGAGAAGAGAAGAUCGGAAGAGCACACGU
B15: target 2 MT 5'PFS AGC 3'PFS AAG (mixed)
RNA 1: CACCCGUGCAAAAUUGCAGGGGUCUAAAACCUUCUCCAAAUUGUUUCAUCCU
RNA 2: GGGAAUGGAUCCACAUCUACGAAUUCAGCAGGAUGAAACAAUUUGGAGAAGAAGAGAUCGGAAGAGCACACGU
B16: target 2 MT 5'PFS CAA 3'PFS AUC (mixed)
RNA 1: CACCCGUGCAAAAUUGCAGGGGUCUAAAACCUUCUCCAAAUUGUUUCAUCCU
RNA 2: GGGAAUGGAUCCACAUCUACGAAUUCCAAAGGAUGAAACAAUUUGGAGAAGAUCAGAUCGGAAGAGCACACGU
B17: target 2 MT 5'PFS AGU 3'PFS CGU (mixed)
RNA 1: CACCCGUGCAAAAUUGCAGGGGUCUAAAACCUUCUCCAAAUUGUUUCAUCCU
RNA 2: GGGAAUGGAUCCACAUCUACGAAUUCAGUAGGAUGAAACAAUUUGGAGAAGCGUAGAUCGGAAGAGCACACGU
B18: target 2 MT 5'PFS AGC 3'PFS AAA (mixed)
RNA 1: CACCCGUGCAAAAUUGCAGGGGUCUAAAACCUUCUCCAAAUUGUUUCAUCCU
RNA 2: GGGAAUGGAUCCACAUCUACGAAUUCAGCAGGAUGAAACAAUUUGGAGAAGAAAAGAUCGGAAGAGCACACGU
B19: target 2 MT 5'PFS CUC 3'PFS UCA (mixed)
RNA 1: CACCCGUGCAAAAUUGCAGGGGUCUAAAACCUUCUCCAAAUUGUUUCAUCCU
RNA 2: GGGAAUGGAUCCACAUCUACGAAUUCCUCAGGAUGAAACAAUUUGGAGAAGUCAAGAUCGGAAGAGCACACGU
B20: target 2 MT 5'PFS CUC 3'PFS UCC (mixed)
RNA 1: CACCCGUGCAAAAUUGCAGGGGUCUAAAACCUUCUCCAAAUUGUUUCAUCCU
RNA 2: GGGAAUGGAUCCACAUCUACGAAUUCCUCAGGAUGAAACAAUUUGGAGAAGUCCAGAUCGGAAGAGCACACGU
B21: target 2 MT 5'PFS GUU 3'PFS AAA (mixed)
RNA 1: CACCCGUGCAAAAUUGCAGGGGUCUAAAACCUUCUCCAAAUUGUUUCAUCCU
RNA 2: GGGAAUGGAUCCACAUCUACGAAUUCGUUAGGAUGAAACAAUUUGGAGAAGAAAAGAUCGGAAGAGCACACGU
B22: target 2 MT 5'PFS UCU 3'PFS UGC (mixed)
RNA 1: CACCCGUGCAAAAUUGCAGGGGUCUAAAACCUUCUCCAAAUUGUUUCAUCCU
RNA 2: GGGAAUGGAUCCACAUCUACGAAUUCUCUAGGAUGAAACAAUUUGGAGAAGUGCAGAUCGGAAGAGCACACGU
B23: target 2 MT 5'PFS AGC 3'PFS UGC (mixed)
RNA 1: CACCCGUGCAAAAUUGCAGGGGUCUAAAACCUUCUCCAAAUUGUUUCAUCCU
RNA 2: GGGAAUGGAUCCACAUCUACGAAUUCAGCAGGAUGAAACAAUUUGGAGAAGUGCAGAUCGGAAGAGCACACGU
B24: target 2 MT 5'PFS GUU 3'PFS AAC (mixed)
RNA 1: CACCCGUGCAAAAUUGCAGGGGUCUAAAACCUUCUCCAAAUUGUUUCAUCCU
RNA 2: GGGAAUGGAUCCACAUCUACGAAUUCGUUAGGAUGAAACAAUUUGGAGAAGAACAGAUCGGAAGAGCACACGU
B25: target 2 MT 5'PFS AGC 3'PFS AAC (mixed)
RNA 1: CACCCGUGCAAAAUUGCAGGGGUCUAAAACCUUCUCCAAAUUGUUUCAUCCU
RNA 2: GGGAAUGGAUCCACAUCUACGAAUUCAGCAGGAUGAAACAAUUUGGAGAAGAACAGAUCGGAAGAGCACACGU
B26: target 1 C2G,G15C (mixed)
RNA 1: CACCCGUGCAAAAAUGCAGGGGUCUAAAACUGAGCGGAUAACCUCUCUAUGG
RNA 2: GGGAAUGGAUCCACAUCUACGAAUUCGUACCAUAGACAGGUUAUCCGCUGACCGAGAUCGGAAGAGCACACGU
B27: target 1 insU 3' of 22,insA 3' of 4 (mixed)
RNA 1: CACCCGUGCAAAAAUGCAGGGGUCUAAAACUGAGCGGAUAACCUCUCUAUGG
RNA 2: GGGAAUGGAUCCACAUCUACGAAUUCGUACUCAUAGAGAGGUUAUCCGCAUCACCGAGAUCGGAAGAGCACACGU
B28: target 1 A1U,A14G (mixed)
RNA 1: CACCCGUGCAAAAAUGCAGGGGUCUAAAACUGAGCGGAUAACCUCUCUAUGG
RNA 2: GGGAAUGGAUCCACAUCUACGAAUUCGUACCAUAGAGGGGUUAUCCGCUCUCCGAGAUCGGAAGAGCACACGU

These binders were tested against T1, EsCas13d, nuclease-dead (assay: crRNA (strand 1, pre-loaded); Mg2+; 40 mM Tris-HCl pH 7.5, 150 mM NaCl, 6 mM MgCl2, 1 mM DTT, 0.1% Tween-20, 0.2 mg/ml BSA; 25 C; 10 min per concentration, then washed). Conditions: tags: His6-TwinStrep-SUMO cleaved; N-terminal SNAP kept (SNAP-Surface 488); label: 3' end held by stalled T7 RNA polymerase.
With B1 the Kd was 7 ± 1.5 nM. B2 was tested, and the Kd was 14.6 ± 1.9 nM. In the case of B3, the Kd is reported as 9.3 ± 0.8 nM. B4 was tested, and the Kd was 5.5 ± 0.8 nM. For B5, the Kd was 5.5 ± 1.8 nM. B6 was tested, and the Kd was 11 ± 5 nM. B7 was tested, and the Kd was 6.3 ± 0.5 nM. With B8 the Kd was 5.2 ± 0.6 nM. Work on B9 yielded a Kd of 7.1 ± 1.4 nM. B10 was tested, and the Kd was 14.5 ± 3.5 nM. B11 showed a Kd of 7.5 ± 0.6 nM. Work on B12 yielded a Kd of 5 ± 0.6 nM. With B13 the Kd was 12.7 ± 1.8 nM. In the case of B14, the Kd is reported as 3.3 ± 0.5 nM. For B15, the Kd was 9.2 ± 2 nM. In the case of B16, the Kd is reported as 2.4 ± 1.1 nM. B17 was tested, and the Kd was 13.9 ± 2.3 nM. B18 gave a Kd of 13 ± 4 nM. For B19, the Kd was 3.3 ± 0.5 nM. B20 was tested, and the Kd was 5.3 ± 0.9 nM. Binder B21 has a Kd of 14 ± 7 nM. Work on B22 yielded a Kd of 11.7 ± 2.1 nM. B23 showed a Kd of 8.2 ± 1.4 nM. With B24 the Kd was 11.9 ± 1.3 nM. B25 was tested, and the Kd was 13 ± 4 nM. B26 gave a Kd of 35.8 ± 3.1 nM. Work on B27 yielded a Kd of 23 ± 1.9 nM. For B28, the Kd was 17 ± 1.3 nM.

— paper PMC10786891, “Massively parallel profiling of RNA-targeting CRISPR-Cas13d”
